Experimental data as given in patent publication US10941182 (Amgen, dated 2021).
Starred links: 1 amine or outer side, 2 acyl side, 3 side chain; linkers in the order of their positions; H or OH if unused. Non-standard residues stand in square brackets, D forms with d. Primed or numbered codes have the meaning given here. *: point of attachment. NPeg9 = PEG amine from Pra click product: 32-amino-3,6,9,12,15,18,21,24,27,30-decaoxadotriacontyl, NCCOCCOCCOCCOCCOCCOCCOCCOCCOCCOCC*; Pra′ = its azide, alkyne or alkene has reacted where a group follows in round brackets; PEG12 = NCCOCCOCCOCCOCCOCCOCCOCCOCCOCCOCCOCCOCCC(=O)O; Oic = O=C(O)[C@@H]1C[C@@H]2CCCC[C@@H]2N1; Phe(4-Cl) = N[C@@H](Cc1ccc(Cl)cc1)C(=O)O; γGlu = O=C(O)[C@H](CCC(=O)[*:2])N[*:1]; NMeR = CN[C@@H](CCCNC(=N)N)C(=O)O; Tridecanoyl = CCCCCCCCCCCCC(=O)*; hArg = N=C(N)NCCCC[C@H](N)C(=O)O; Cha = N[C@@H](CC1CCCCC1)C(=O)O; NMeL = CN[C@@H](CC(C)C)C(=O)O; pGlu = O=C1CC[C@@H](C(=O)O)N1; Nle = CCCC[C@H](N)C(=O)O; Orn = NCCC[C@H](N)C(=O)O; AEEA = NCCOCCOCC(=O)O; Aib = CC(C)(N)C(=O)O; Mpa = O=C(O)CCS

T1: human APJ receptor (human, UniProt P35414 1-380)
T1 sequence (looked up): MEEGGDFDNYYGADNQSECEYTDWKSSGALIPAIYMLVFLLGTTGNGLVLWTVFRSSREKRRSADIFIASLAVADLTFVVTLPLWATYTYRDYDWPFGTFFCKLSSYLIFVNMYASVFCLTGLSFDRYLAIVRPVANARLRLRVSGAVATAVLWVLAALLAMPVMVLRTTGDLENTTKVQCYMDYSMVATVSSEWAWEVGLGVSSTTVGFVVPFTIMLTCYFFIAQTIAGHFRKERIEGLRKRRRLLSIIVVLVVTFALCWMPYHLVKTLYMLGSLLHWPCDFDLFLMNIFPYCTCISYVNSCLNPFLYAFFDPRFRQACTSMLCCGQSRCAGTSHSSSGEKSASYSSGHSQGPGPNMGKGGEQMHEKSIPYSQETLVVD

T2: rat APJ receptor (rat, UniProt Q9JHG3 1-377)
T2 sequence (looked up): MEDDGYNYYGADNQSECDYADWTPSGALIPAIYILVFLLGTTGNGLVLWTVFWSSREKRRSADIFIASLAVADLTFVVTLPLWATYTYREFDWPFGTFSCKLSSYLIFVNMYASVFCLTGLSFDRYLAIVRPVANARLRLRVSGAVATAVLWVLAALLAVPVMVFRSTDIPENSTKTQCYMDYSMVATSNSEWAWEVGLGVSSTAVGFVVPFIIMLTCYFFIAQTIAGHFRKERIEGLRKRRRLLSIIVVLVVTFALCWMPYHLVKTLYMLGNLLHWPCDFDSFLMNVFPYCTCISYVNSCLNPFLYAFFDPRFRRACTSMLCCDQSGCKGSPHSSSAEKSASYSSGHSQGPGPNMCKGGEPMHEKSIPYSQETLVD

T3: rat APJ receptor (rat, UniProt Q9JHG3 1-377)
T3 sequence (looked up): T2 sequence (looked up)

T4: human APJ receptor (human, UniProt P35414 1-380)
T4 sequence (looked up): T1 sequence (looked up)

B1: modified apelin polypeptide SEQ ID NO: 341 (peptide)
peptide: Tridecanoyl-[γGlu][AEEA][AEEA]RQRPK[Cha]SA[Nle]G[Oic][Nle]P[Phe(4-Cl)]-OH
SMILES: CCCCCCCCCCCCC(=O)N[C@@H](CCC(=O)NCCOCCOCC(=O)NCCOCCOCC(=O)N[C@@H](CCCNC(=N)N)C(=O)N[C@@H](CCC(N)=O)C(=O)N[C@@H](CCCNC(=N)N)C(=O)N1CCC[C@H]1C(=O)N[C@@H](CCCCN)C(=O)N[C@@H](CC1CCCCC1)C(=O)N[C@@H](CO)C(=O)N[C@@H](C)C(=O)N[C@@H](CCCC)C(=O)NCC(=O)N1[C@H](C(=O)N[C@@H](CCCC)C(=O)N2CCC[C@H]2C(=O)N[C@@H](Cc2ccc(Cl)cc2)C(=O)O)C[C@@H]2CCCC[C@@H]21)C(=O)O
B2: modified apelin polypeptide SEQ ID NO: 539 (peptide)
peptide: Tridecanoyl-[γGlu][PEG12][dQ]RP[NMeR][Cha]SHKG[Oic][Nle][Aib][Phe(4-Cl)]-OH
SMILES: CCCCCCCCCCCCC(=O)N[C@@H](CCC(=O)NCCOCCOCCOCCOCCOCCOCCOCCOCCOCCOCCOCCOCCC(=O)N[C@H](CCC(N)=O)C(=O)N[C@@H](CCCNC(=N)N)C(=O)N1CCC[C@H]1C(=O)N(C)[C@@H](CCCNC(=N)N)C(=O)N[C@@H](CC1CCCCC1)C(=O)N[C@@H](CO)C(=O)N[C@@H](Cc1c[nH]cn1)C(=O)N[C@@H](CCCCN)C(=O)NCC(=O)N1[C@H](C(=O)N[C@@H](CCCC)C(=O)NC(C)(C)C(=O)N[C@@H](Cc2ccc(Cl)cc2)C(=O)O)C[C@@H]2CCCC[C@@H]21)C(=O)O
B3: modified apelin polypeptide SEQ ID NO: 337 (peptide)
peptide: Tridecanoyl-[γGlu][AEEA][AEEA]RQRPK[Cha]SH[Nle]G[Oic][Nle]P[Phe(4-Cl)]-OH
SMILES: CCCCCCCCCCCCC(=O)N[C@@H](CCC(=O)NCCOCCOCC(=O)NCCOCCOCC(=O)N[C@@H](CCCNC(=N)N)C(=O)N[C@@H](CCC(N)=O)C(=O)N[C@@H](CCCNC(=N)N)C(=O)N1CCC[C@H]1C(=O)N[C@@H](CCCCN)C(=O)N[C@@H](CC1CCCCC1)C(=O)N[C@@H](CO)C(=O)N[C@@H](Cc1c[nH]cn1)C(=O)N[C@@H](CCCC)C(=O)NCC(=O)N1[C@H](C(=O)N[C@@H](CCCC)C(=O)N2CCC[C@H]2C(=O)N[C@@H](Cc2ccc(Cl)cc2)C(=O)O)C[C@@H]2CCCC[C@@H]21)C(=O)O
B4: modified apelin polypeptide SEQ ID NO: 546 (peptide)
peptide: Tridecanoyl-D[AEEA][AEEA][dQ]RP[NMeR][Cha]SHKG[Oic][Nle][Aib][Phe(4-Cl)]-OH
B5: modified apelin polypeptide SEQ ID NO: 538 (peptide)
peptide: Tridecanoyl-[dD][AEEA][AEEA][dQ]RP[NMeR][Cha]SHKG[Oic][Nle][Aib][Phe(4-Cl)]-OH
SMILES: CCCCCCCCCCCCC(=O)N[C@H](CC(=O)O)C(=O)NCCOCCOCC(=O)NCCOCCOCC(=O)N[C@H](CCC(N)=O)C(=O)N[C@@H](CCCNC(=N)N)C(=O)N1CCC[C@H]1C(=O)N(C)[C@@H](CCCNC(=N)N)C(=O)N[C@@H](CC1CCCCC1)C(=O)N[C@@H](CO)C(=O)N[C@@H](Cc1c[nH]cn1)C(=O)N[C@@H](CCCCN)C(=O)NCC(=O)N1[C@H](C(=O)N[C@@H](CCCC)C(=O)NC(C)(C)C(=O)N[C@@H](Cc2ccc(Cl)cc2)C(=O)O)C[C@@H]2CCCC[C@@H]21
B6: modified apelin polypeptide SEQ ID NO: 507 (peptide)
peptide: XXQRPRLSHKGPXPF
modifications: {TDA} [Aeea] [Aeea] Q R P [NMeArg] L S H K G P [Nle] P [4-Cl-F] {COOH}: N-terminal tridecanoyl (TDA)-Aeea-Aeea; NMeArg, Nle, 4-Cl-F non-canonical; free C-terminal acid
B7: modified apelin polypeptide SEQ ID NO: 346 (peptide)
peptide: Tridecanoyl-[γGlu][AEEA][AEEA]RQRPK[Cha]AA[Nle]G[Oic][Nle]P[Phe(4-Cl)]-OH
SMILES: CCCCCCCCCCCCC(=O)N[C@@H](CCC(=O)NCCOCCOCC(=O)NCCOCCOCC(=O)N[C@@H](CCCNC(=N)N)C(=O)N[C@@H](CCC(N)=O)C(=O)N[C@@H](CCCNC(=N)N)C(=O)N1CCC[C@H]1C(=O)N[C@@H](CCCCN)C(=O)N[C@@H](CC1CCCCC1)C(=O)N[C@@H](C)C(=O)N[C@@H](C)C(=O)N[C@@H](CCCC)C(=O)NCC(=O)N1[C@H](C(=O)N[C@@H](CCCC)C(=O)N2CCC[C@H]2C(=O)N[C@@H](Cc2ccc(Cl)cc2)C(=O)O)C[C@@H]2CCCC[C@@H]21)C(=O)O
B8: modified apelin polypeptide SEQ ID NO: 532 (peptide)
peptide: Tridecanoyl-[γGlu][dQ]RP[NMeR][Cha]SHKG[Oic][Nle][Aib][Phe(4-Cl)]-OH
SMILES: CCCCCCCCCCCCC(=O)N[C@@H](CCC(=O)N[C@H](CCC(N)=O)C(=O)N[C@@H](CCCNC(=N)N)C(=O)N1CCC[C@H]1C(=O)N(C)[C@@H](CCCNC(=N)N)C(=O)N[C@@H](CC1CCCCC1)C(=O)N[C@@H](CO)C(=O)N[C@@H](Cc1c[nH]cn1)C(=O)N[C@@H](CCCCN)C(=O)NCC(=O)N1[C@H](C(=O)N[C@@H](CCCC)C(=O)NC(C)(C)C(=O)N[C@@H](Cc2ccc(Cl)cc2)C(=O)O)C[C@@H]2CCCC[C@@H]21)C(=O)O
B9: modified apelin polypeptide SEQ ID NO: 511 (peptide)
peptide: XXXQRPRLSHKGPXPF
modifications: {TetDDA} [AC4Abu] [Aeea] [Aeea] Q R P [NMeArg] L S H K G P [Nle] P [4-Cl-F] {COOH}: N-terminal tetradecanedioyl (TetDDA)-gammaGlu (AC4Abu)-Aeea-Aeea; NMeArg, Nle, 4-Cl-F non-canonical; free C-terminal acid
B10: apelin polypeptide SEQ ID NO: 57 (peptide)
peptide: Ac-[Orn]F[hArg][hArg]Q[hArg]P[NMeR][Cha]SHKG[Oic][Nle][Phe(4-Cl)]-OH
SMILES: CCCC[C@H](NC(=O)[C@@H]1C[C@@H]2CCCC[C@@H]2N1C(=O)CNC(=O)[C@H](CCCCN)NC(=O)[C@H](Cc1c[nH]cn1)NC(=O)[C@H](CO)NC(=O)[C@H](CC1CCCCC1)NC(=O)[C@H](CCCNC(=N)N)N(C)C(=O)[C@@H]1CCCN1C(=O)[C@H](CCCCNC(=N)N)NC(=O)[C@H](CCC(N)=O)NC(=O)[C@H](CCCCNC(=N)N)NC(=O)[C@H](CCCCNC(=N)N)NC(=O)[C@H](Cc1ccccc1)NC(=O)[C@H](CCCN)NC(C)=O)C(=O)N[C@@H](Cc1ccc(Cl)cc1)C(=O)O
B11: apelin polypeptide SEQ ID NO: 59 (peptide)
peptide: Ac-[Orn]F[hArg][hArg]Q[hArg]P[dR][NMeL]SHKG[Oic][Nle][Phe(4-Cl)]-OH
SMILES: CCCC[C@H](NC(=O)[C@@H]1C[C@@H]2CCCC[C@@H]2N1C(=O)CNC(=O)[C@H](CCCCN)NC(=O)[C@H](Cc1c[nH]cn1)NC(=O)[C@H](CO)NC(=O)[C@H](CC(C)C)N(C)C(=O)[C@@H](CCCNC(=N)N)NC(=O)[C@@H]1CCCN1C(=O)[C@H](CCCCNC(=N)N)NC(=O)[C@H](CCC(N)=O)NC(=O)[C@H](CCCCNC(=N)N)NC(=O)[C@H](CCCCNC(=N)N)NC(=O)[C@H](Cc1ccccc1)NC(=O)[C@H](CCCN)NC(C)=O)C(=O)N[C@@H](Cc1ccc(Cl)cc1)C(=O)O
B12: apelin polypeptide SEQ ID NO: 96 (peptide)
peptide: [pGlu]RP[hArg][Cha][Pra′](NPeg9)HKG[Oic][Nle]P[Phe(4-Cl)]-OH
B13: apelin polypeptide SEQ ID NO: 58 (peptide)
peptide: Ac-[Orn]F[hArg][hArg]Q[hArg][Oic][dR][Cha]SHKG[Oic][Nle][Phe(4-Cl)]-OH
SMILES: CCCC[C@H](NC(=O)[C@@H]1C[C@@H]2CCCC[C@@H]2N1C(=O)CNC(=O)[C@H](CCCCN)NC(=O)[C@H](Cc1c[nH]cn1)NC(=O)[C@H](CO)NC(=O)[C@H](CC1CCCCC1)NC(=O)[C@@H](CCCNC(=N)N)NC(=O)[C@@H]1C[C@@H]2CCCC[C@@H]2N1C(=O)[C@H](CCCCNC(=N)N)NC(=O)[C@H](CCC(N)=O)NC(=O)[C@H](CCCCNC(=N)N)NC(=O)[C@H](CCCCNC(=N)N)NC(=O)[C@H](Cc1ccccc1)NC(=O)[C@H](CCCN)NC(C)=O)C(=O)N[C@@H](Cc1ccc(Cl)cc1)C(=O)O
B14: apelin polypeptide SEQ ID NO: 100 (peptide)
peptide: {20K mPEGacetamide}-[Mpa]RQRP[hArg][Cha]SHKG[Oic][Nle]P[Phe(4-Cl)]-OH
modifications: numbers in words are those of the source; also: 20 kDa PEG conjugate

Target: T1, human APJ receptor
Assay: cell-based or functional assay

Row | EC50 Human APJ Receptor (µM), GTPγS assay [µM] | Binder
1 | 0.000561 | B1
2 | 0.000735 | B2
3 | 0.00208 | B3
4 | 0.000478 | B4
5 | 0.000525 | B5
6 | 7.95e-05 | B6
7 | 0.00277 | B7

Target: T2, rat APJ receptor
Assay: cell-based or functional assay

Row | EC50 Rat APJ Receptor (µM), GTPγS assay [µM] | Binder
8 | 0.00127 | B1
9 | 0.00354 | B2
10 | 0.00299 | B8
11 | 0.00212 | B3
12 | 0.00123 | B4
13 | 0.00189 | B5
14 | 0.000968 | B9
15 | 0.000245 | B6
16 | 0.00246 | B7

Target: T3, rat APJ receptor
Assay: cell-based or functional assay

Row | EC50 Rat APJ Receptor [nM] | Binder
17 | 0.787 | B10
18 | 4.57 | B11
19 | 14.6 | B12
20 | 5.32 | B13
21 | 45.4 | B14

Target: T4, human APJ receptor
Assay: cell-based or functional assay

Row | EC50 Human APJ Receptor [nM] | Binder
22 | 0.412 | B10
23 | 2.08 | B11
24 | 2.02 | B12
25 | 1.17 | B13
26 | 8.06 | B14
